Experiments:
Experiment in all cases: fluorescence polarisation
TLH3 nucleosome (human) = TLH3 nucleosome (human) (UniProt P04908)
TLH4 nucleosome (human) = TLH4 nucleosome (human) (UniProt P04908)
[1] = biological target: H2A-H2B (Alexa-488 H2B) (human) (UniProt P04908)
[2] = biological target: H3-H4 (Alexa-488 H4) (human) (UniProt P68431)

Kd (TLH3 nucleosome (human)): 0.33 µM
Kd (TLH4 nucleosome (human)): 0.11 µM
Kd [1]: 0.01 µM
Kd [2]: 0.0012 µM
Substance: SMARCAD1 (from UniProt Q9H4L7 1-1026) (enzyme)

Source: doi:10.1101/2021.04.14.439859
